Substrate: OC[C@H]1O[C@@](CO)(O[C@H]2O[C@H](CO)[C@@H](O)[C@H](O)[C@H]2O)[C@@H](O)[C@@H]1O
Experiment: initial sucrose consumption rate, reducing sugar (DNS) assay, Michaelis-Menten fit
Type: biochemical, Leuconostoc citreum
Conditions: pH 6.5 phosphate 50 mM, 30°C, 1 mM CaCl2, total Km (hydrolysis plus transglycosylation)
Text: initial sucrose consumption rate, reducing sugar (DNS) assay, Michaelis-Menten fit on IslA2

B1: IslA2 (Leuconostoc citreum) (protein)
chain: DVNQPLLAQENFSGNKTEPVPDKSNKNESVKDSKVATSDELAKDSKVATSDELAKDSKVATSDELAKDSKVATSDELVKDSKVATSDELAKDSKVATSDELAKDSKVATSDELAKDSKVATSDELAKDSKVATSDELAKDSKAPTNDVSVRAEKKSSLIDSPELNVKMSEMTSVPNLISDENSKNLVNSNELINGLSKRSLEIAHQAGIDVSRLNDIQKAALNKIKLVNEDGNKYVLDNTGSDYTKNTIIDKNNPDDTTKTTHITFANLDDAIKLAQKPDPKTTIPVFNASQINNLPASIFKDAQTNKVEKMDVWDSWALQDSKTGEVYNYHGKQVVFALMGAPLVQGDTHIYMLYNNYNNAKLDGWVNAGPVFGYNAKPESQEWSGSAVVNSDDSIQLFYTRVADDWKQALATVNIKITNSENSLGIQSLQNDHILFEGDGYFYSRKDQLKPQADMFTLRDPKLIELDDGERYLTFEANTGIYDEASDQQTVNLNNYGGGLTYDVARMLGVVNNSNRALYSSTANGAIGLLKLKGDYFNPILDRLYKPLITAVGVTDEIERANIVPFNGKYYLFTDSRFNRSAADNSPMSMAPDGAMMMGFVSDSLFGDYKPLNGNGIVLVTNNSFTSRTNTYSWYTVPVKGRPDLMLVTSYMTNRGLASGTDQYSTFAPSFLLKIDGDQTHVLNTVTEQGDWVWGDDDHSIVELLALNTEDAYLTNNQKNINYSPDWSNIDGYGYPIVTNIKDVDLTFYISGILSPDSLFKNAPGRHQGARIIGSTSQYNTEKVSAIKEYTDDLNTIWYLVNLAGNNFWIKGSSLVTVPMTDSTFRNAYIVKDSDMYLDAPQGETNAKYYQSSNSYNDAYVIVGGEYKDAHGITWNLIKLNDKILWINKNSLAISFSRDLN
notes: C-terminal truncation, last 551 residues deleted; variable region, catalytic domain and transition region kept; 102 kDa plus 16 kDa N-terminal thioredoxin fusion, His tag; E. coli TOP10, pBAD/Thio TOPO, Ni-NTA
Km: 24 mM | kcat: 28.2 s⁻¹ | kcat/Km: 1170 M⁻¹ s⁻¹
